Measurements: the supplement of paper PMC12338614
± gives the uncertainty stated by the source.

B1: library; numbered along this chain (parent)
chain: MEVVDPQQLGMFTEGELMSVGMDTFIHRIDSTEVIYQPRRKRAKLIGKYLMGDLLGEGSYGKVKEVLDSETLCRRAVKILKKKKLRRIPNGEANVKKEIQLLRRLRHKNVIQLVDVLYNEEKQKMYMVMEYCVCGMQEMLDSVPEKRFPVCQAHGYFCQLIDGLEYLHSQGIVHKDIKPGNLLLTTGGTLKISDLGVAEALHPFAADDTCRTSQGSPAFQPPEIANGLDTFSGFKVDIWSAGVTLYNITTGLYPFEGDNIYKLFENIGKGSYAIPGDCGPPLSDLLKGMLEYEPAKRFSIRQIRQHSWFRKKHPPAEAPVPIPPSPDTKDRWRSMTVVPYLEDLHGADEDEDLFDIEDDIIYTQDFTVPGQVPEEEASHNGQRRGLPKAVCMNGTEAAQLSTKSRAEGRAPNPARKACSASSKIRRLSACKQQ

Variants of: B1
Test: STK11 functional score (HeLa growth suppression), rescaled enrichment; synonymous median = 1, nonsense median = 0 (normalised score)
Conditions: with HeLa; variant type: missense
Procedure, shortened: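 The functional score takes the post/pre-selection log ratio, corrects it to wild type, rescales it to synonymous and nonsense medians, and merges it over codons and replicate transfections, with error from bootstrapping. Counts came from tiled gDNA amplicons sequenced on NextSeq (~2 million reads per tile). The libraries were POPCode codon-randomised, codon-optimised STK11 integrated by Bxb1 at an AAVS1 landing pad in HeLa, three regions with three transfections each.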

Variant | STK11 functional score
R415H | 1.6 ± 0.28
R415D | 1.43 ± 0.23
F309V | 0.0641 ± 0.1
F309N | -0.159 ± 0.08
M11W | 1.71 ± 0.11
M11L | 1.52 ± 0.23
M136L | 0.989 ± 0.083
D284L | 0.935 ± 0.21
D284S | 1.27 ± 0.11
E145A | 0.952 ± 0.13
R426I | 1.15 ± 0.49
F264I | 0.658 ± 0.51
F264A | 1.16 ± 0.36
K83P | 1.64 ± 0.41
Q123G | 0.98 ± 0.27
Q123K | 0.3 ± 0.27
A389R | 1.56 ± 0.29
L400A | 1.64 ± 0.3
D348M | 0.896 ± 0.66
D348V | 0.78 ± 0.44
S283C | 0.98 ± 0.14
F148A | 0.105 ± 0.081
C391W | 0.764 ± 0.48
A398N | 1.15 ± 0.19

Variant | STK11 functional score
A398T | 1.3 ± 0.21
K287G | 1.28 ± 0.16
T250G | 0.834 ± 0.095
T250E | 0.89 ± 0.1
D355G | 1.63 ± 0.25
D355I | 1.18 ± 0.42
R211L | 1.21 ± 0.19
F298P | 1.16 ± 0.26
N247G | 0.808 ± 0.097
N247D | 0.827 ± 0.46
Y156T | 1.13 ± 0.67
P411E | 1.61 ± 0.33
T244A | 0.738 ± 0.12
T244F | 0.698 ± 0.082
K262S | 0.994 ± 0.17
K262F | 0.714 ± 0.098
G215L | 1.04 ± 0.15
C210H | 1.42 ± 0.24
K81Y | 1.29 ± 0.37
D343P | 1.33 ± 0.15
D343T | 1.53 ± 0.14
P369D | 1.61 ± 0.15
G91H | 0.418 ± 0.46
H174I | 0.662 ± 0.19

Variant | STK11 functional score
L290A | 0.0427 ± 0.076
L290Y | -0.205 ± 0.067
I356Q | 1.58 ± 0.21
I356G | 1.45 ± 0.37
G187V | 0.795 ± 0.26
G187I | 1.62 ± 0.17
L427F | 1.31 ± 0.23
Q170H | 0.738 ± 0.12
Q170T | 0.156 ± 0.35
E342R | 1.54 ± 0.21
E342Y | 1.38 ± 0.12
T336G | 1.15 ± 0.16
C278Y | 0.449 ± 0.12
C278V | 0.943 ± 0.11
R409W | 1.42 ± 0.11
R409K | 1.39 ± 0.36
K388A | 1.17 ± 0.65
K388H | 1.12 ± 0.26
L353F | 1.27 ± 0.6
L353T | 1.45 ± 0.16
G381V | 0.684 ± 0.15
G381L | 1.24 ± 0.15
G381I | 1.57 ± 0.22
M127V | 0.95 ± 0.26

Variant | STK11 functional score
M127T | 1.32 ± 0.48
Y362I | 1.56 ± 0.15
D352E | 1.15 ± 0.64
D352M | 1.2 ± 0.33
T249S | 1.24 ± 0.27
F219L | 1.11 ± 0.13
F219W | 1.49 ± 0.11
Y166T | 1.11 ± 0.67
G227C | 0.981 ± 0.31
Q399N | 1.39 ± 0.35
D53Y | 1.38 ± 0.1
T395W | 1.61 ± 0.26
N226G | 1.24 ± 0.17
S422K | 1.53 ± 0.12
S422L | 1.17 ± 0.12
S422A | 1.5 ± 0.26
S401I | 1.49 ± 0.15
S404L | 1.47 ± 0.25
G58M | 0.219 ± 0.094
N90D | 1.23 ± 0.21
A420G | 1.52 ± 0.26
S271M | 1.5 ± 0.21
K64Q | 1.58 ± 0.26
S213G | 1.37 ± 0.14

Variant | STK11 functional score
Q8L | 1.5 ± 0.66
C418D | 1.57 ± 0.34
C418G | 1.61 ± 0.24
C418A | 1.62 ± 0.12
L245P | -0.14 ± 0.1
L285D | -0.216 ± 0.087
L285S | -0.0113 ± 0.096
P254G | 0.298 ± 0.11
V110N | 0.651 ± 0.79
V110I | 0.703 ± 0.64
V110Y | 0.623 ± 0.43
K96D | 1.27 ± 0.25
K96R | 1.18 ± 0.16
Y292R | 1.22 ± 0.21
Y292A | 1.15 ± 0.26
K41C | 1.47 ± 0.3
E375G | 1.49 ± 0.32
E375F | 1.29 ± 0.29
E375S | 1.39 ± 0.21
E57Q | 1.06 ± 0.23
A93R | 1.6 ± 0.19
G268Y | 1.32 ± 0.19
E349A | 1.5 ± 0.13
L17F | 0.925 ± 0.58

Variant | STK11 functional score
L17T | 1.62 ± 0.18
D358N | 0.776 ± 0.53
D358L | 1.56 ± 0.17
M392F | 1.17 ± 0.41
G346Y | 1.57 ± 0.17
A318S | 1.33 ± 0.28
L117A | 1.27 ± 0.31
G233T | 1.7 ± 0.4
G233N | 1.19 ± 0.26
G233Q | 1.62 ± 0.24
P294R | 0.705 ± 0.19
M139K | 1.41 ± 0.18
M139R | 0.918 ± 0.37
S232L | 0.996 ± 0.2
S232W | 0.692 ± 0.097
E376Q | 0.896 ± 0.46
P144Q | 1.25 ± 0.34
P144I | 0.87 ± 0.082
Q371H | 1.15 ± 0.68
R297G | -0.132 ± 0.076
L105D | 0.494 ± 0.2
L105G | 0.712 ± 0.15
E291I | 1.22 ± 0.56
E291T | 1.15 ± 0.44

Variant | STK11 functional score
K122Q | 0.235 ± 0.48
R425H | 1.56 ± 0.17
D258F | 0.78 ± 0.28
R383K | 1.57 ± 0.2
A429Y | 1.49 ± 0.23
C158I | 1.51 ± 0.3
P373T | 1.11 ± 0.17
P373V | 0.868 ± 0.14
Y340V | 1.6 ± 0.27
Y246L | 0.818 ± 0.17
Y246V | 0.944 ± 0.15
I248C | 1 ± 0.24
I79E | 0.0444 ± 0.2
A397V | 0.799 ± 0.24
N94H | 1.35 ± 0.3
L263S | 1.18 ± 0.19
L263Q | 0.281 ± 0.62
P281I | 1.46 ± 0.18
P281L | 1.18 ± 0.11
K191I | 1.19 ± 0.51
M129V | 0.303 ± 0.084
S69R | 1.1 ± 0.44
D277H | 1.36 ± 0.54
